Reference: patent publication US8461305B2, “L-fucose α1→6 specific lectin” (J-Oil Mills, Inc., priority 2008, dated 2013)

Tests used:
[1] = tested on: glycoproteins; assay: hemagglutinating inhibition test with glycoproteins (sugar binding specificity); format: cell-based
Text: The sugar binding specificity of lectin also can be confirmed by using erythrocytes that can be specifically agglutinated by the lectin to investigate the sugar type that may inhibit the agglutination of the erythrocytes and the concentration thereof.
Various monosaccharides, oligosaccharides, and polysaccharides shown in Table 2 and glycoproteins shown in Table 3 were subjected to hemagglutinating inhibition test to evaluate PTL of Example 1 and the SRL of Example 2 with regard to the sugar binding specificity.
On a 96 well U-bottom microtiter plate, double dilution series of 10 μl of monosaccharide, oligosaccharide, polysaccharide, and glycoprotein solutions were prepared. Then, lectin solution adjusted in advance to have titer 4 was added in an amount of 10 μl to the respective wells. Then, the plate was subjected to a still-standing at a room temperature for one hour for sensitization. Then, 10 μl of 4%-red blood cell suspension was added to the respective wells and the plate was further subjected to a still-standing at a room temperature for one hour. […] The lowest concentration showing the inhibition was assumed as the minimum inhibition concentration. The lower the minimum inhibition concentration is, the higher the specificity to lectin is.
For comparison, the sugar binding specificity was evaluated using the following commercially-available lectins: Comparison Example 1: AAL (SEIKAGAKU BIOBUSINESS CORPORATION—J-OIL MILLS, Inc.), Comparison Example 2: AOL (TOKYO CHEMICAL INDUSTRY CO., LTD.—Gekkeikan Sake Company, Ltd.), Comparison Example 3: LCA (SEIKAGAKU BIOBUSINESS CORPORATION—J-OIL MILLS, Inc.), and Comparison Example 4: PSA (SEIKAGAKU BIOBUSINESS CORPORATION—J-OIL MILLS, Inc.).

[2] = molecular target: Transferrin (human) (Homo sapiens, UniProt P02787); assay: detection of glycoproteins by ELISA with biotin-labeled lectin; format: binding; conditions: (4) Transferrin (human), N-linked glycan not including α1→6 L-fucose; thyroglobulin value = 100%
Experimental: (§1) PTL of Example 1, SRL of Example 2, AAL of Comparison Example 1, AOL of Comparison Example 2, and LCA of Comparison Example 3 that were biotin-labeled were used to the detection of glycoproteins by the enzyme-linked immunosorbent assay (ELISA).
(§2) The glycoprotein and albumin as protein not including a sugar chain as a control were dissolved in 0.1 M carbonic acid buffer solution (pH 9.5) at 1 mg/ml. Then, the resultant solution was added to a microtiter plate (Nunc 439454) and was incubated at 4 degrees C. overnight. Then, the resultant solution was cleaned by 0.05% Tween/PBS three times. Thereafter, 1% BSA/PBS was added to wells and the solution was incubated at 37 degrees C. for one hour. Then, after the solution was cleaned by 0.05% Tween/PBS three times, biotin labeled-lectin appropriately diluted by 1% BSA/0.05% Tween/PBS was added to the wells and the solution was incubated at 37 degrees C. for one hour. After the solution was cleaned by 0.05% Tween/PBS three times, HRP labeled streptavidin solution diluted by 1% BSA/0.05% Tween/PBS was added to wells and the solution was incubated at 37 degrees C. for 30 minutes. After the solution was cleaned by 0.05% Tween/PBS three times, TMB Peroxidase substrate system (KPL) was added and the resultant solution was incubated at a room temperature for 10 minutes while light was being blocked.
(§3) The reaction was stopped by 1 M phosphoric acid. Then, a microplate reader (MPR-A4i, TOSOH CORPORATION) was used to measure the absorbance at 450 nm. Based on this value, reaction value ([absorbance at 450 nm of a well for which glycoprotein was solid-phased to the plate and reacted]−[absorbance at 450 nm of a well for which glycoprotein was not solid-phased to the plate and reacted] was calculated. Next, for each lectin, the interaction strength (relative value) to each glycoprotein was calculated based on an assumption that the glycoprotein (thyroglobulin) value was 100%. The calculation result is shown in Table 9 and FIG. 19 to FIG. 23.

[3] = molecular target: Lactoferrin (human) (Homo sapiens, UniProt P02788); assay: as above; format: binding; conditions: (2) Lactoferrin (human), N-linked glycan chain having α1→6 L-fucose; thyroglobulin value = 100%
Experimental: as §1, §2, §3

[4] = molecular target: Blood serum albumin (bovine) (Bos taurus, UniProt P02769); assay: as above; format: binding; conditions: (0) Blood serum albumin (bovine), No sugar chain; thyroglobulin value = 100%
Experimental: as §1, §2, §3

[5] = tested on: Mucin (bovine); assay: as above; format: binding; conditions: (8) Mucin (bovine), O-linked glycan including L-fucose; thyroglobulin value = 100%
Experimental: as §1, §2, §3

[6] = tested on: α1-acidic glycoprotein (human); assay: as above; format: binding; conditions: (5) α1-acidic glycoprotein (human), N-linked glycan having α1→3 L-fucose; thyroglobulin value = 100%
Experimental: as §1, §2, §3

[7] = molecular target: T1, Invertase (yeast) (Saccharomyces cerevisiae, UniProt P00724); assay: as above; format: binding; conditions: (6) Invertase (yeast), High mannose-type glycan; thyroglobulin value = 100%
T1 sequence (P00724 20-532): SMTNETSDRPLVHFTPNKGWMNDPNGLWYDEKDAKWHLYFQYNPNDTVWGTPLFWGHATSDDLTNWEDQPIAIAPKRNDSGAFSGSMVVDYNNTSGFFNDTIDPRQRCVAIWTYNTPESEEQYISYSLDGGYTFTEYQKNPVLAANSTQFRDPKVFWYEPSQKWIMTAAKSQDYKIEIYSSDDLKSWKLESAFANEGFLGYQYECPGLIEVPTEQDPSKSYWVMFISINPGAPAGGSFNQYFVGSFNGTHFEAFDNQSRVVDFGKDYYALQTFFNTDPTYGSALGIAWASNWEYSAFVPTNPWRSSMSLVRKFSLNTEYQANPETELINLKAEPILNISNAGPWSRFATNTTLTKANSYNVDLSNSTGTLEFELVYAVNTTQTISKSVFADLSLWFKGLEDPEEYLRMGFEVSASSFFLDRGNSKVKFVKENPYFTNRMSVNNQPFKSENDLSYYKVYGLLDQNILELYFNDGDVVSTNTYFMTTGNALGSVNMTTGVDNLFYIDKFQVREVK
Experimental: as §1, §2, §3

[8] = tested on: Mucin (pig); assay: as above; format: binding; conditions: (7) Mucin (pig), O-linked glycan including L-fucose; thyroglobulin value = 100%
Experimental: as §1, §2, §3

[9] = molecular target: Thyroglobulin (pig) (Sus scrofa, UniProt F1RRV3); assay: as above; format: binding; conditions: (1) Thyroglobulin (pig), N-linked glycan having α1→6 L-fucose; thyroglobulin value = 100%
Experimental: as §1, §2, §3

[10] = inhibitor: Bovine blood serum albumin
[11] = inhibitor: Human immune globulin A
[12] = inhibitor: Human immune globulin G
[13] = inhibitor: α1-acidic glycoprotein

Chain of Lactoferrin (human) (P02788 20-710): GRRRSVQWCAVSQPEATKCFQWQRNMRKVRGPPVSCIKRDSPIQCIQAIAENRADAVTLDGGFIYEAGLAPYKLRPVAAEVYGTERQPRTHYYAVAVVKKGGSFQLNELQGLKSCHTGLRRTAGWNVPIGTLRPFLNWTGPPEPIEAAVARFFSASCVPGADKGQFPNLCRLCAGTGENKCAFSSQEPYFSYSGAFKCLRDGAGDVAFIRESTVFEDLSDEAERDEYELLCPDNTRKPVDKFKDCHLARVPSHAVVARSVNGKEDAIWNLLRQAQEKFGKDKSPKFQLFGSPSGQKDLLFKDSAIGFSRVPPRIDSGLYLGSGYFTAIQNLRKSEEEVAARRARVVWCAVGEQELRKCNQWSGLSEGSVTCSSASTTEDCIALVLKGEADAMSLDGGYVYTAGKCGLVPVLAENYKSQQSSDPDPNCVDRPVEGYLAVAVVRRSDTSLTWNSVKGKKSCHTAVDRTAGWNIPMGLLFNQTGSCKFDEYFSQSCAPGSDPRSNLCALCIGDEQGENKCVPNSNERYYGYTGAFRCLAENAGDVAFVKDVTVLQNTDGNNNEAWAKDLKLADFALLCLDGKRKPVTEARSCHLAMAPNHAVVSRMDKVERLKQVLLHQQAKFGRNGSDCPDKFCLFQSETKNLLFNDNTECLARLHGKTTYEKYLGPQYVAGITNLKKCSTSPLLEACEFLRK
Chain of Thyroglobulin (pig) (F1RRV3 20-2692): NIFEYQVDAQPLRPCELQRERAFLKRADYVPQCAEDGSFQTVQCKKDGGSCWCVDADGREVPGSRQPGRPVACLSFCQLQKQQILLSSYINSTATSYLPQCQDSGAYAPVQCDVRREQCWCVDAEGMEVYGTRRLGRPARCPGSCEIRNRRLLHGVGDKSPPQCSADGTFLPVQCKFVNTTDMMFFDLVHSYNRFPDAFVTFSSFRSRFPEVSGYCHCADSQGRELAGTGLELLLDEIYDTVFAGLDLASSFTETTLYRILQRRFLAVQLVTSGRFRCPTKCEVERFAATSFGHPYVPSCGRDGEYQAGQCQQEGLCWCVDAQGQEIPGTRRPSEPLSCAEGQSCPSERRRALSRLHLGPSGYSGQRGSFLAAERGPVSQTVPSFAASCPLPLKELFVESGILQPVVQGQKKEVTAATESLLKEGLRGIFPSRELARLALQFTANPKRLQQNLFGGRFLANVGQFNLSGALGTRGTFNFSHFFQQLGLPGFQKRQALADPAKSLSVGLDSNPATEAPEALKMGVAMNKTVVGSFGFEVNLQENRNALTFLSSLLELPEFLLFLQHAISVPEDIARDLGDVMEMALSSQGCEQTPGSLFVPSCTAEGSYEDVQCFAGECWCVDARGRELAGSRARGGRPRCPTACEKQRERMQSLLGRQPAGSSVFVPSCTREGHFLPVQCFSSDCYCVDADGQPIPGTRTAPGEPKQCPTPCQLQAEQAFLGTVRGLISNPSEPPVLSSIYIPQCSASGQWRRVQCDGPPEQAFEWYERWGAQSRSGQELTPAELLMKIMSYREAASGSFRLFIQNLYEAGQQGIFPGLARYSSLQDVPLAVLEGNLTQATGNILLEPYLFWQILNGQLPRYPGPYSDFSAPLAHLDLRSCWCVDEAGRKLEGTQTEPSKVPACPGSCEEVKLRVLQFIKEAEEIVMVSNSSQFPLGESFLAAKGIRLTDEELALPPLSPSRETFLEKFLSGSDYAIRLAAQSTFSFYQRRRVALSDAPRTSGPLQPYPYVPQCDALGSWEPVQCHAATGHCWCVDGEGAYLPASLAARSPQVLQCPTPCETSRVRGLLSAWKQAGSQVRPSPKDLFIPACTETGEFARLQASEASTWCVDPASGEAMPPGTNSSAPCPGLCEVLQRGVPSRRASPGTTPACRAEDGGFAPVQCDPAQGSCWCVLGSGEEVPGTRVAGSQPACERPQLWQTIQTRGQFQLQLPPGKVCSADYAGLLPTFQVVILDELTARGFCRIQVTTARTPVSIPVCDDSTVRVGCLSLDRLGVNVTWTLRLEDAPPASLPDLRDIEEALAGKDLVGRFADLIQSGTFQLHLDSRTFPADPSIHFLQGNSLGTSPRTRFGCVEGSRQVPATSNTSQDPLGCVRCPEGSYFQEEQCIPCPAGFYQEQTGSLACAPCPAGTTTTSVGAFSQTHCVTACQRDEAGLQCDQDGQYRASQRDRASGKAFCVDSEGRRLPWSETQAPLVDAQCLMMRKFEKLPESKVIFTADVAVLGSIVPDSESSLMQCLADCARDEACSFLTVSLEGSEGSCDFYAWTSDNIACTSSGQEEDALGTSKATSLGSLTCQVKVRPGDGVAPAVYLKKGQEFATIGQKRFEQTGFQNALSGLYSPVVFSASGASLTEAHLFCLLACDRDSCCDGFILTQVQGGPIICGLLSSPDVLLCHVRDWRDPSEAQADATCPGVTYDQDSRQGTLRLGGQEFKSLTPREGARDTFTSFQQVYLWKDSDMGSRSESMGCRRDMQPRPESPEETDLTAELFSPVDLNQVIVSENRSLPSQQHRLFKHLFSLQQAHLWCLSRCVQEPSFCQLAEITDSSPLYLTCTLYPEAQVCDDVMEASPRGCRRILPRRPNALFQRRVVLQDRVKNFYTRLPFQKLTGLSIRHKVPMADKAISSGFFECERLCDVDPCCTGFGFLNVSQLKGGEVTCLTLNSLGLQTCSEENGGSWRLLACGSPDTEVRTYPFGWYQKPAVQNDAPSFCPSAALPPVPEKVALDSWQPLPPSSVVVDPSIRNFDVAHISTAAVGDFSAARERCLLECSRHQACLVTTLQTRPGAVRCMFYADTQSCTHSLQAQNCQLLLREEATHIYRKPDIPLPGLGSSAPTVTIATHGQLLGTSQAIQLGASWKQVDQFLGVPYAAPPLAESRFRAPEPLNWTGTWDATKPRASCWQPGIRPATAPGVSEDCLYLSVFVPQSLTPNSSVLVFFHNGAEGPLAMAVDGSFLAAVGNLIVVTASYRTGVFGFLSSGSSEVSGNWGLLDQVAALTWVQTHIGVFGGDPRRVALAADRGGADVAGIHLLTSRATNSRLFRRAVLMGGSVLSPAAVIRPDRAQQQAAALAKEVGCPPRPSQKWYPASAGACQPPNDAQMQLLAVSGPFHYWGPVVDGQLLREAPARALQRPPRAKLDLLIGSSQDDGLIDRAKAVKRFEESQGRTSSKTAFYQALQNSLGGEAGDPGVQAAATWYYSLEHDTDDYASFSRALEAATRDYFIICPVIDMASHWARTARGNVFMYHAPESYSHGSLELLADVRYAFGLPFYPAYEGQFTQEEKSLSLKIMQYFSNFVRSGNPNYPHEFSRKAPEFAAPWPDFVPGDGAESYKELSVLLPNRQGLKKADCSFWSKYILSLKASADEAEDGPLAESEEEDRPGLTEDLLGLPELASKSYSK
Chain of Transferrin (human) (P02787 20-698): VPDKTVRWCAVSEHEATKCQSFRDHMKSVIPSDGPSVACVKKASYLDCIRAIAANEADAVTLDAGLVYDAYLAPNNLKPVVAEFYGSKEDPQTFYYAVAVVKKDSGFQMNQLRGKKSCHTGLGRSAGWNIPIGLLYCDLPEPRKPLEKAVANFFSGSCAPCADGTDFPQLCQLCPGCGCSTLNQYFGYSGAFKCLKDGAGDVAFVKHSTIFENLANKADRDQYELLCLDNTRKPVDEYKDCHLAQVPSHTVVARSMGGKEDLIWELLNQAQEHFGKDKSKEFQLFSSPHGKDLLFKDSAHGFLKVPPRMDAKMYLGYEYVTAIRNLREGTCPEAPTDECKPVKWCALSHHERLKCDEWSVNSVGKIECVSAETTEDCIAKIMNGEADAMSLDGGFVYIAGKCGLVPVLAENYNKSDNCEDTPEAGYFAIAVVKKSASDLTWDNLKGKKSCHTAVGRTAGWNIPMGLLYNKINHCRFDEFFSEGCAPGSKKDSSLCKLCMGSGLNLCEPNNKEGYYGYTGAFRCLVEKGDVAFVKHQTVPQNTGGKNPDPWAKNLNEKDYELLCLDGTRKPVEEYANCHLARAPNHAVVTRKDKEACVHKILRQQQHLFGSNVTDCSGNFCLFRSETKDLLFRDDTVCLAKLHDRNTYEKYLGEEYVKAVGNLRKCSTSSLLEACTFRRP
Chain of Blood serum albumin (bovine) (P02769 25-607): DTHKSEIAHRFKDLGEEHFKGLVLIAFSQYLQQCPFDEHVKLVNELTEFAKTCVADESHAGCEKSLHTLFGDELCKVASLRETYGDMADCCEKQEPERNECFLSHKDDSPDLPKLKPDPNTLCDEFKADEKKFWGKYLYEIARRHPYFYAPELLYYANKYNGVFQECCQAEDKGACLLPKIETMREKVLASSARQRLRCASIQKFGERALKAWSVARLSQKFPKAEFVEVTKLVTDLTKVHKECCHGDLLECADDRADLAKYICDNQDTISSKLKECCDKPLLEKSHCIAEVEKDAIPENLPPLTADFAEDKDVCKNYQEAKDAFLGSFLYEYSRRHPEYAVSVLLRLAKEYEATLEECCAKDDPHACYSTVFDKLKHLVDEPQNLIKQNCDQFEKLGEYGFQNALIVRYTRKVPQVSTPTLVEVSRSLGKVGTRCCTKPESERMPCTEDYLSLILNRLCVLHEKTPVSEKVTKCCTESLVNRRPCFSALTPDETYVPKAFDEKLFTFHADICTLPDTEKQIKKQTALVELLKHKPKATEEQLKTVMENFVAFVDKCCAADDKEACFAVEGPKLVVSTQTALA

B1: Aleuria aurantia lectin (protein)
chain: PTEFLYTSKIAAISWAATGGRQQRVYFQDLNGKIREAQRGGDNPWTGGSSQNVIGEAKLFSPLAAVTWKSAQGIQIRVYCVNKDNILSEFVYDGSKWITGQLGSVGVKVGSNSKLAALQWGGSESAPPNIRVYYQKSNGSGSSIHEYVWSGKWTAGASFGSTVPGTGIGATAIGPGRLRIYYQATDNKIREHCWDSNSWYVGGFSASASAGVSIAAISWGSTPNIRVYWQKGREELYEAAYGGSWNTPGQIKDASRPTPSLPDTFIAANSSGNIDISVFFQASGVSLQQWQWISGKGWSIGAVVPTGTPAGW
- minimum inhibition concentration of hemagglutination ([1]; inhibitor: Asialofetuin): >250 μl/ml
- minimum inhibition concentration of hemagglutination ([1]; inhibitor: Asialomucin (pig)): 31.3 μl/ml
- minimum inhibition concentration of hemagglutination [1, 10]: >250 μl/ml
- minimum inhibition concentration of hemagglutination ([1]; inhibitor: Casein): >250 μl/ml
- minimum inhibition concentration of hemagglutination ([1]; inhibitor: Fetuin): >250 μl/ml
- minimum inhibition concentration of hemagglutination [1, 11]: >250 μl/ml
- minimum inhibition concentration of hemagglutination [1, 12]: >250 μl/ml
- minimum inhibition concentration of hemagglutination ([1]; inhibitor: Lactoferrin): >250 μl/ml
- minimum inhibition concentration of hemagglutination ([1]; inhibitor: Mucin (bovine)): >250 μl/ml
- minimum inhibition concentration of hemagglutination ([1]; inhibitor: Mucin (pig)): 15.6 μl/ml
- minimum inhibition concentration of hemagglutination ([1]; inhibitor: Ribonuclease): >250 μl/ml
- minimum inhibition concentration of hemagglutination ([1]; inhibitor: Thyroglobulin): 125 μl/ml
- minimum inhibition concentration of hemagglutination ([1]; inhibitor: Transferrin): >250 μl/ml
- minimum inhibition concentration of hemagglutination [1, 13]: >250 μl/ml
- interaction strength (relative value) by ELISA [2]: X (Relative values of 10 or less)
- interaction strength (relative value) by ELISA [3]: ◯ (Relative values of 80 to 50)
- interaction strength (relative value) by ELISA [4]: X (Relative values of 10 or less)
- interaction strength (relative value) by ELISA [5]: ⊚ (Relative values of 120 to 80)
- interaction strength (relative value) by ELISA [6]: Δ (Relative values of 50 to 10)
- interaction strength (relative value) by ELISA [7]: X (Relative values of 10 or less)
- interaction strength (relative value) by ELISA [8]: ⊚ (Relative values of 120 to 80)
- interaction strength (relative value) by ELISA [9]: ⊚ (Relative values of 120 to 80)

B2: Lens culinaris agglutinin (protein)
chain 1: TETTSFSITKFSPDQKNLIFQGDGYTTKGKLTLTKAVKSTVGRALYSTPIHIWDRDTGNVANFVTSFTFVIDAPSSYNVADEFTFFIAPVDTKPQTGGGYLGVFNSKEYDKTSQTVAVEFDTFYNAAWDPSNKERHIGIDVNSIKSVNTKSWNLQNGERANVVIAFNAATNVLTVTLTYP
chain 2: VTSYTLNEVVPLKDVVPEWVRIGFSATTGAEFAAHEVHSWSFHSELGGTSSS
- minimum inhibition concentration of hemagglutination ([1]; inhibitor: Asialofetuin): 250 μl/ml
- minimum inhibition concentration of hemagglutination ([1]; inhibitor: Asialomucin (pig)): >250 μl/ml
- minimum inhibition concentration of hemagglutination [1, 10]: >250 μl/ml
- minimum inhibition concentration of hemagglutination ([1]; inhibitor: Casein): >250 μl/ml
- minimum inhibition concentration of hemagglutination ([1]; inhibitor: Fetuin): >250 μl/ml
- minimum inhibition concentration of hemagglutination [1, 11]: >250 μl/ml
- minimum inhibition concentration of hemagglutination [1, 12]: >250 μl/ml
- minimum inhibition concentration of hemagglutination ([1]; inhibitor: Lactoferrin): >250 μl/ml
- minimum inhibition concentration of hemagglutination ([1]; inhibitor: Mucin (bovine)): >250 μl/ml
- minimum inhibition concentration of hemagglutination ([1]; inhibitor: Mucin (pig)): >250 μl/ml
- minimum inhibition concentration of hemagglutination ([1]; inhibitor: Ribonuclease): >250 μl/ml
- minimum inhibition concentration of hemagglutination ([1]; inhibitor: Thyroglobulin): 62.5 μl/ml
- minimum inhibition concentration of hemagglutination ([1]; inhibitor: Transferrin): >250 μl/ml
- minimum inhibition concentration of hemagglutination [1, 13]: >250 μl/ml
- interaction strength (relative value) by ELISA [2]: X (Relative values of 10 or less)
- interaction strength (relative value) by ELISA [3]: ◯ (Relative values of 80 to 50)
- interaction strength (relative value) by ELISA [4]: X (Relative values of 10 or less)
- interaction strength (relative value) by ELISA [5]: X (Relative values of 10 or less)
- interaction strength (relative value) by ELISA [6]: X (Relative values of 10 or less)
- interaction strength (relative value) by ELISA [7]: X (Relative values of 10 or less)
- interaction strength (relative value) by ELISA [8]: X (Relative values of 10 or less)
- interaction strength (relative value) by ELISA [9]: ⊚ (Relative values of 120 to 80)
